# Measurements from publication PMC6999076, “Engineered disulfide bonds improve thermostability and activity of L‐isoleucine hydroxylase for efficient 4‐HIL production in Bacillus subtilis 168” (Engineering in Life Sciences, 2019).
# B1: L-isoleucine hydroxylase (IDO) (Bacillus cereus ATCC 14579) (protein)
# chain: MTFVLSKMNGFSIEEKVHEFESKGFLEISNEIFLQEEENHRLLTQAQLDYYNLEDDAYGECRARSYSRYIKYVDSPDYILDNSNDYFQSKEYNYDDGGKVRQFNSINDSFLCNPLIQNIVRFDTEFAFKTNIIDTSKDLIIGLHQVRYKATKERPSFSSPIWLHKDDEPVVFLHLMNLSNTAIGGDNLIANSPREINQFISLKEPLETLVFGQKVFHAVTPLGTECSTEAFRDILLVTFSYKETK
# notes: full-length, 6xHis tag (downstream primer, C-terminal) kept; free cysteines C61, C112, C226; GenBank AE016877.1 is a whole-genome record (B. cereus ATCC 14579), not a gene record
# Columns and labels:
# [1] = substrate: CC[C@H](C)[C@H](N)C(=O)O; test: DNFB precolumn derivatization HPLC of 4-HIL; Michaelis-Menten fit; assay type: biochemical, Bacillus cereus; conditions: 20 mM alpha-KG, assay: 1 mM FeSO4, 5 mM ascorbic acid, PBS pH 7.0, 30°C
# Source text: (§1) DNFB precolumn derivatization HPLC of 4-HIL; Michaelis-Menten fit on L-isoleucine hydroxylase (IDO)
# [2] = substrate: O=C(O)CCC(=O)C(=O)O; test: as above; assay type: biochemical, Bacillus cereus; conditions: 20 mM L-Ile, assay: 1 mM FeSO4, 5 mM ascorbic acid, PBS pH 7.0, 30°C
# Source text: as §1
protein,measurement,setting,value
B1,Km,[1],260 µM
same,kcat,[1],0.84 s⁻¹
same,kcat/Km,[1],3180 M⁻¹ s⁻¹
same,Km,[2],3340 µM
same,kcat,[2],0.32 s⁻¹
same,kcat/Km,[2],90 M⁻¹ s⁻¹
